Experimental data taken from the Human Domainome abundance scans (Beltran et al. 2025).

B1: CD2-associated protein, residues 271 to 331; numbered along this chain, Q9Y5K6 (parent)
chain: KEYCRTLFAYEGTNEDELTFKEGEIIHLISKETGEAGWWRGELNGKEGVFPDNFAVQINEL

Variants of: B1
Experiment: abundance fitness (aPCA) (normalised: wild type 0, dead -1); higher = more abundant; growth selection in yeast, the domain comes from the species named
Conditions: Homo sapiens

Abundance fitness: each site, then its substitutions
G48: L -0.753, C -1.01, V -0.864, N -0.998, R -0.856, M -0.947, Q -0.93, E -0.688, T -1.07, W -0.949, K -0.746, I -0.725, H -0.749, F -1.05, D -0.695, P -0.932, Y -1.18, A -0.65, S -0.843
N59: D -0.145, G -0.037, K -0.274, H -0.1, E -0.05, T -0.147, I -0.702, M -0.426, Q -0.056, S 0.009, V -0.349, W -0.367, L -0.501, P -0.032, Y -0.332
V56: K -0.05, N -0.339, G -0.173, T 0.033, Y -0.409, P -0.567, L -0.264, M -0.073, W -0.434, E 0.003, H -0.317, R -0.161, S -0.243, I -0.327, Q -0.226, F -0.456, C -0.314
V49: R 0.029, T -0.129, A -0.319, M -0.082, Q -0.302, H -0.482, L -0.01, N -0.099, W -0.111, Y -0.022, S -0.297, E -0.674, G -0.628, C -0.11, P -0.713, K 0.003
I58: P -0.431, L -0.026, V 0.005, S -0.233, Y -0.249, N -0.378, R -0.417, D 0, T -0.136, C -0.112, H -0.234, A -0.151, W -0.213, Q -0.247, F -0.126
N53: W -0.355, A -0.003, D -0.094, C -0.138, H -0.032, T 0.027, Q -0.051, R 0.038, I -0.193, K 0.133, L -0.133, M -0.198, P -0.365, Y -0.084, E -0.036, S 0.012, F -0.14, V -0.185
F54: K 0.044, I -0.191, R -0.004, A 0.162, V 0.011, Q -0.347, E -0.632, L 0.037, N -0.625, M -0.079, S 0.099, T -0.088, C 0.084, W -0.296, H -0.018, G -0.32, P -0.572
D52: Y -0.085, L -0.055, C 0.009, P -0.081, N 0.008, E 0.043, V -0.16, I 0.077, S 0.039, W -0.186, R -0.043, Q -0.02, A 0.053, M 0.077, F -0.142, K -0.02
L61: C 0.275, I -0.29, P 0.215, A 0.033, V 0.02, K 0.033, R -0.049, H 0.009, Y 0.064, W -0.116, M -0.003, T 0.105, Q 0.113, S 0.152, E 0.026
P51: M 0.004, K 0.152, L -0.377, A -0.447, C -0.923, F -0.677, N -0.582, G -0.893, Q -0.137, R -0.032, S -0.56, H -0.866, I -0.49, D -0.487, V -0.974, W -0.533, E -0.573
Q57: E -0.016, N -0.077, K -0.188, T -0.024, R -0.155, L -0.046, C -0.139, W -0.532, A -0.023, D -0.097, V -0.058, F -0.295, Y -0.463, S -0.182, H -0.051, I -0.006
F50: A -0.539, W -0.792, S -0.818, L -0.668, I -0.822, C -0.516, T -0.705, D -0.626, R -0.614, K -0.993, V -0.674, M -0.845, N -0.809, Q -0.732, P -0.973
A55: T -0.149, F -0.492, Y -0.919, E -0.726, M -0.886, I -0.274, V 0.034, H -1.01, L -0.573, W -0.623, G -0.322, P -0.738, D -0.671, R -1.07, S -0.505, C -0.058, K -0.92
E47: W -0.601, R -0.02, S -0.052, T -0.029, H -0.154, I 0.053, M -0.301, V -0.029, P -0.752, N -0.205, L -0.241, Y -0.171, Q 0.014
E60: T -0.11, I -0.475, A -0.05, Q -0.115, F -0.213, R -0.178, W -0.258, S -0.124, N -0.227, L -0.296, C -0.127, K 0.03, D 0.172, P -0.015, V -0.291, M -0.42, H 0.13, G 0.013
